Paper PMC4448125 (Nature communications, 2015)

Target: GST-tagged human eIF1AX (known as eIF1A), full length (human, UniProt P47813 1-144)
Assay: pull-down

GST-tagged human eIF1AX (known as eIF1A), full length, sequence (P47813 whole entry): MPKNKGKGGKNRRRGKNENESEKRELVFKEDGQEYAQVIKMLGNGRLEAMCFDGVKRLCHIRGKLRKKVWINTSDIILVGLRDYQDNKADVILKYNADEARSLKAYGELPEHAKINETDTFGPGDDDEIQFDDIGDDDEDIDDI

B1: His-SMT3-tagged MID(432 ~ 575aa) of human Ago2 (domain or fragment)
chain: not shown
B1: binds.
